Results from patent US7588931B2, “High arachidonic acid producing strains of Yarrowia lipolytica” (E. I. du Pont de Nemours and Company, priority 2004, dated 2009).
Entries after “also recorded” stand apart in the source; their conditions may differ.

B1: FBA: Y. lipolytica fructose-bisphosphate aldolase promoter, SEQ ID NO:161 (nucleic acid, listed as Yarrowia lipolytica)
DNA: TAAACAGTGTACGCAGTACTATAGAGGAACAATTGCCCCGGAGAAGACGGCCAGGCCGCCTAGATGACAAATTCAACAACTCACAGCTGACTTTCTGCCATTGCCACTAGGGGGGGCCTTTTTATATGGCCAAGCCAAGCTCTCCACGTCGGTTGGGCTGCACCCAACAATAAATGGGTAGGGTTGCACCAACAAAGGGATGGGATGGGGGGTAGAAGATACGAGGATAACGGGGCTCAATGGCACAAATAAGAACGAATACTGCCATTAAGACTCGTGATCCAGCGACTGACACCATTGCATCATCTAAGGGCCTCAAAACTACCTCGGAACTGCTGCGCTGATCTGGACACCACAGAGGTTCCGAGCACTTTAGGTTGCACCAAATGTCCCACCAGGTGCAGGCAGAAAACGCTGGAACAGCGTGTACAGTTTGTCTTAACAAAAAGTGAGGGCGCTGAGGTCGAGCAGGGTGGTGTGACTTGTTATAGCCTTTAGAGCTGCGAAAGCGCGTATGGATTTGGCTCATCAGGCCAGATTGAGGGTCTGTGGACACATGTCATGTTAGTGTACTTCAATCGCCCCCTGGATATAGCCCCGACAATAGGCCGTGGCCTCATTTTTTTGCCTTCCGCACATTTCCATTGCTCGGTACCCACACCTTGCTTCTCCTGCACTTGCCAACCTTAATACTGGTTTACATTGACCAACATCTTACAAGCGGGGGGCTTGTCTAGGGTATATATAAACAGTGGCTCTCCCAATCGGTTGCCAGTCTCTTTTTTCCTTTCTTTCCCCACAGATTCGAAATCTAAACTACACATCACACAATGCCTGTTACTGACGTCCTTAAGCGAAAGTCCGGTGTCATCGTCGGCGACGATGTCCGAGCCGTGAGTATCCACGACAAGATCAGTGTCGAGACGACGCGTTTTGTGTAATGACACAATCCGAAAGTCGCTAGCAACACACACTCTCTACACAAACTAACCCAGCTCTCC
modifications: misc_feature: Promoter FBA
B2: FBAIN: fructose-bisphosphate aldolase + intron promoter, SEQ ID NO:162 (nucleic acid, listed as Yarrowia lipolytica)
DNA: AAATTGCCCCGGAGAAGACGGCCAGGCCGCCTAGATGACAAATTCAACAACTCACAGCTGACTTTCTGCCATTGCCACTAGGGGGGGGCCTTTTTATATGGCCAAGCCAAGCTCTCCACGTCGGTTGGGCTGCACCCAACAATAAATGGGTAGGGTTGCACCAACAAAGGGATGGGATGGGGGGTAGAAGATACGAGGATAACGGGGCTCAATGGCACAAATAAGAACGAATACTGCCATTAAGACTCGTGATCCAGCGACTGACACCATTGCATCATCTAAGGGCCTCAAAACTACCTCGGAACTGCTGCGCTGATCTGGACACCACAGAGGTTCCGAGCACTTTAGGTTGCACCAAATGTCCCACCAGGTGCAGGCAGAAAACGCTGGAACAGCGTGTACAGTTTGTCTTAACAAAAAGTGAGGGCGCTGAGGTCGAGCAGGGTGGTGTGACTTGTTATAGCCTTTAGAGCTGCGAAAGCGCGTATGGATTTGGCTCATCAGGCCAGATTGAGGGTCTGTGGACACATGTCATGTTAGTGTACTTCAATCGCCCCCTGGATATAGCCCCGACAATAGGCCGTGGCCTCATTTTTTTGCCTTCCGCACATTTCCATTGCTCGGTACCCACACCTTGCTTCTCCTGCACTTGCCAACCTTAATACTGGTTTACATTGACCAACATCTTACAAGCGGGGGGCTTGTCTAGGGTATATATAAACAGTGGCTCTCCCAATCGGTTGCCAGTCTCTTTTTTCCTTTCTTTCCCCACAGATTCGAAATCTAAACTACACATCACACAATGCCTGTTACTGACGTCCTTAAGCGAAAGTCCGGTGTCATCGTCGGCGACGATGTCCGAGCCGTGAGTATCCACGACAAGATCAGTGTCGAGACGACGCGTTTTGTGTAATGACACAATCCGAAAGTCGCTAGCAACACACACTCTCTACACAAACTAACCCAGCTCTCC
modifications: misc_feature: Promoter FBAIN

How the values were obtained:
[1] = tested on: β-glucuronidase (GUS) reporter; assay: Comparative analysis of promoters by fluorometric assay of GUS expression; assay type: cell-based, Yarrowia lipolytica; settings: for GUS activity relative to the GPD promoter: ATCC #76982 strains, FIG. 6A
Procedure: GUS activity was also assayed by fluorometric determination of the production of 4-methylumbelliferone (4-MU) from the corresponding substrate β-glucuronide (Jefferson, R. A. Plant Mol. Biol. Reporter 5:387-405 (1987)).
Yarrowia lipolytica ATCC #76982 strains containing plasmids pY5-30, PYZGDG, PYZGMG, pDMW212 and pDMW214 were grown from single colonies in 3 mL MM (as described above) at 30° C. to an OD600˜1.0. Then, the 3 mL cultures were each added to a 500 mL flask containing 50 mL MM and grown in a shaking incubator at 30° C. for about 24 hrs. The cells were collected by centrifugation, resuspended in Promega Cell Lysis Buffer and lysed using the BIO 101 Biopulverizer system (Vista, Calif.). After centrifugation, the supernatants were removed and kept on ice.
Similarly, Y. lipolytica strain Y2034 containing plasmids pY5-30, pYAT-GUS, pYGPAT-GUS and pDMW214 constructs, respectively, were grown from single colonies in 10 mL SD medium at 30° C. for 48 hrs to an OD600˜5.0. Two mL of each culture was collected for GUS activity assays, as described below, while 5 mL of each culture was switched into HGM.
Specifically, cells from the 5 mL aliquot were collected by centrifugation, washed once with 5 mL of HGM and resuspended in HGM. The cultures in HGM were then grown in a shaking incubator at 30° C. for 24 hrs. Two mL of each HGM culture were collected for the GUS activity assay, while the remaining culture was allowed to grow for an additional 96 hrs before collecting an additional 2 mL of each culture for the assay.
Each 2 mL culture sample in SD medium was resuspended in 1 mL of 0.5× cell culture lysis reagent (Promega). Resuspended cells were mixed with 0.6 mL of glass beads (0.5 mm diameter) in a 2.0 mL screw cap tube with a rubber O-ring. The cells were then homogenized in a Biospec mini beadbeater (Bartlesville, Okla.) at the highest setting for 90 sec. The homogenization mixtures were centrifuged for 2 min at 14,000 rpm in an Eppendof centrifuge to remove cell debris and beads. The supernatant was used for GUS assay and protein determination.
For each fluorometric assay, 100 μl of extract was added to […] of GUS assay buffer (2 mM 4-methylumbelliferyl-β-D-glucuronide (“MUG”) in extraction buffer) or 200 μl of extract was added to 800 μl of GUS assay buffer. The mixtures were placed at 37° C. Aliquots of 100 μl were taken at 0, 30 and 60 min time points and added to 900 μl of stop buffer (1 M Na2CO3). Each time point was read using a CytoFluor Series 4000 Fluorescence Multi-Well Plate Reader (PerSeptive Biosystems, Framingham, Mass.) set to an excitation wavelength of 360 nm and an emission wavelength of 455 nm. Total protein concentration of each sample was determined using 10 μl of extract and 200 μl of BioRad Bradford reagent or 20 μl of extract and 980 μl of BioRad Bradford reagent (Bradford, M. M. Anal. Biochem. 72:248-254 (1976)). GUS activity was expressed as nmoles of 4-MU per minute per mg of protein.

[2] = tested on: β-glucuronidase (GUS) reporter; assay: Comparative analysis of promoters by histochemical analysis of GUS expression; assay type: cell-based, Yarrowia lipolytica; settings: ATCC #76982 strains, MM, FIG. 5B
Outline: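 Yarrowia lipolytica strains carrying promoter::GUS plasmids grown at 30 °C in MM to OD600 ~1.0, […]. Cells stained with X-Gluc in 50 mM NaPO4 pH 7.0 at 30 °C, […]; promoter strength compared by histochemical GUS staining.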

Molecule	GUS activity relative to the GPD promoter [1]	promoter activity by histochemical staining [2]	GUS activity ([1]; strain Y2034, 24 hr, HGM)	GUS activity ([1]; strain Y2034, 48 hr, SD)	GUS activity ([1]; strain Y2034, 120 hr HGM)	reduction of promoter activity ([1]; switched from SD medium into HGM for 24 hrs)
B1	2.2 times	active; also recorded: much stronger than all the other promoters	–	–	–	–
B2	about 6.6 times	active; also recorded: strongest promoter activity	30.694 nmoles of 4-MU per minute per mg of protein	43.333 nmoles of 4-MU per minute per mg of protein	17.200 nmoles of 4-MU per minute per mg of protein	30%
